Measured values taken from article PMC9482650, “Quantitative fragmentomics allow affinity mapping of interactomes” (Nature Communications, 2022).

How the values were obtained:
HEK293T cells [1] = experiment: RT-qPCR of mRNA levels in stable cell lines; type: cell-based, human; details: source data of Suppl Figure 4 B, stable HEK293T cell line; for DLG1 relative mRNA level / GFP relative mRNA level / MAGI1 relative mRNA level / RPLP0 relative mRNA level / SCRIB relative mRNA level / SNTB2 relative mRNA level / SNX27 relative mRNA level / SYNJ2BP relative mRNA level / TAX1BP3 relative mRNA level / p53 relative mRNA level: IRES control line about 1
Method: Cells were plated on 6-well plates. When they reached confluency, RNA was isolated by using Qiagen RNeasy Mini kit (#74104). On-column DNase digestion was done by using Qiagen RNase-Free DNase Set (#79254). 2 μg total RNA per sample was transcribed to cDNA by using SuperScript IV kit (Invitrogen, #18091050) with random hexamer primers (Thermo Fisher #SO142) according to standard protocol. For qPCR, primers were designed with the help of Primer Blast (NCBI NIH, https://www.ncbi.nlm.nih.gov/tools/primer-blast/) choosing primers which recognize all common alternative transcripts of the given gene (Supplementary Fig 4). qPCR was done by using QuantiTect SyberGreen (Qiagen, #204143) and LightCycler II equipment (Roche). Standard ΔΔCt method was used to determine relative quantity to GAPDH. For further analyses GraphPad Prism 7 software was used.

HEK293T cells [2] = experiment: Label-free MS proteome of stable cell lines expressing HPV16 E6 or E6ΔPBM; type: cell-based, human; details: source data of Figure 6 D, IRES control line about 1; for p53 relative protein level: stable HEK293T cell line expressing the construct; for AHNAK relative protein level / LIN7C relative protein level / MPP6 relative protein level / SNX27 relative protein level: stable HEK293T cell line
Method: HEK293T and HeLa cells were authenticated and found 100% identity to ATCC cat. CRL-3216 and ATCC cat. CCL-2, respectively. Jurkat and HaCat cell lines were not authenticated (original source: ECACC and Deutsches Krebsforschungszentrum DKFZ, respectively). HeLa cells were grown in DMEM (1 g/L glucose, Gibco) medium completed with 5% FCS and 40 μg/mL gentamicin, diluted every 3rd/4th day 1/10. HaCat cells were grown in DMEM (1 g/L glucose, Gibco) medium completed with 10% FCS and 40 μg/mL gentamicin, diluted every 3rd/4th day 1/4. Jurkat cells were grown in RPMI (Gibco) medium completed with 10% FCS and 40 μg/mL gentamicin, diluted every 3rd/4th day 1/12. All cells were kept at 37 °C and 5% CO2. For proteomics analyses cells were seeded on T-175 flasks. After they reached confluency, adherent cells were washed with PBS once and collected by scraping with ice-cold lysis buffer (Hepes-KOH pH 7.5 50 mM, NaCl 150 mM, Triton X-100 1%, complete EDTA-free protease inhibitor cocktail 1×, EDTA 2 mM, TCEP 5 mM, glycerol 10%). Jurkat cells were collected by 1000 g × centrifugation, washed once with PBS, then collected by 1000 g × 5 min centrifugation again and lysed in ice-cold lysis buffer. Lysates were sonicated 4 × 20 s with 1 s long pulses on ice, then incubated rotating at 4 °C for 30 min. Lysates were centrifuged at 12,000 rpm 4 °C for 20 min and supernatant was kept for further analysis. Concentration determination was carried out by standard Bradford method (Bio-Rad Protein Assay Dye Reagent #5000006) using BSA (MP BIomedicals #160069) as control on a Bio-Rad SmartSpec 3000 spectrophotometer instrument.
The samples were precipitated with TCA 20% overnight at 4 °C and centrifuged at 14,000 rpm for 10 min at 4 °C. The protein pellets were washed twice with 1 mL cold acetone and air dried. The protein extracts were solubilized in urea 8 M, reduced with 5 mM TCEP for 30 min, and alkylated with 10 mM iodoacetamide for 30 min in the dark. Double digestion was performed at 37 °C with 500 ng endoproteinase Lys-C for 4 h, followed by fourfold dilution and an overnight digestion with 500 ng trypsin. Peptide mixtures were then desalted on C18 spin-column and dried on Speed-Vacuum.
Samples were analyzed using an Ultimate 3000 nano-RSLC (Thermo Scientific, San Jose California) coupled in line with a LTQ-Orbitrap ELITE mass spectrometer via a nano-electrospray ionization source (Thermo Scientific, San Jose California). Peptide mixtures were injected in 0.1% TFA on a C18 Acclaim PepMap100 trap-column (75 µm ID × 2 cm, 3 µm, 100 Å, Thermo Fisher Scientific) for 3 min at 5 µL/min with 2% ACN, 0.1% FA in H2O and then separated on a C18 Accucore nano-column (75 µm ID × 50 cm, 2.6 µm, 150 Å, Thermo Fisher Scientific) at 220 nl/min and 38 °C with a 90 min linear gradient from 5% to 30% buffer B (A: 0.1% FA in H2O/B: 99% ACN, 0.1% FA in H2O), regeneration at 5% B. The mass spectrometer was operated in positive ionization mode, in data-dependent mode with survey scans from m/z 350–1500 acquired in the Orbitrap at a resolution of 120,000 at m/z 400. The 20 most intense peaks from survey scans were selected for further fragmentation in the Linear Ion Trap with an isolation window of 2.0 Da and were fragmented by CID with normalized collision energy of 35%. (TOP20CID method) Unassigned and single charged states were excluded from fragmentation. The Ion Target Value for the survey scans (in the Orbitrap) and the MS2 mode (in the Linear Ion Trap) were set to 1E6 and 5E3 respectively and the maximum injection time was set to 100 ms for both scan modes. Dynamic exclusion was set to 20 s after one repeat count with mass width at ±10 ppm.
Proteins were identified by database searching using SequestHT (Thermo Fisher Scientific) with Proteome Discoverer 2.4 software (PD2.4, Thermo Fisher Scientific) on human FASTA database downloaded from SwissProt (reviewed, release 2020_11_27, 20304 entries, https://www.uniprot.org/). […]

B1: E6: wild-type HPV16 E6 oncoprotein stably expressed in HEK293T cells (protein, UniProt P03126 1-158, looked up)
chain: MHQKRTAMFQDPQERPRKLPQLCTELQTTIHDIILECVYCKQQLLRREVYDFAFRDLCIVYRDGNPYAVCDKCLKFYSKISEYRHYCYSLYGTTLEQQYNKPLCDLLIRCINCQKPLCPEEKQRHLDKKQRFHNIRGRWTGRCMSCCRSSRTRRETQL
modifications: full-length
notes: wild-type HPV16 E6 oncoprotein stably expressed in HEK293T cells
DLG1 relative mRNA level (HEK293T cells [1]; replicate 1): 1.01
GFP relative mRNA level (HEK293T cells [1]; replicate 1): 0.3883
MAGI1 relative mRNA level (HEK293T cells [1]; replicate 1): 1.0722
RPLP0 relative mRNA level (HEK293T cells [1]; replicate 1): 0.9236
SCRIB relative mRNA level (HEK293T cells [1]; replicate 1): 0.9974
SNTB2 relative mRNA level (HEK293T cells [1]; replicate 1): 1.021
SNX27 relative mRNA level (HEK293T cells [1]; replicate 1): 1.06
SYNJ2BP relative mRNA level (HEK293T cells [1]; replicate 1): 0.9318
TAX1BP3 relative mRNA level (HEK293T cells [1]; replicate 1): 0.9978
p53 relative mRNA level (HEK293T cells [1]; replicate 1): 1.205
DLG1 relative mRNA level (HEK293T cells [1]; replicate 2): 0.9789
GFP relative mRNA level (HEK293T cells [1]; replicate 2): 0.361
MAGI1 relative mRNA level (HEK293T cells [1]; replicate 2): 1.194
RPLP0 relative mRNA level (HEK293T cells [1]; replicate 2): 0.9077
SCRIB relative mRNA level (HEK293T cells [1]; replicate 2): 0.9906
SNTB2 relative mRNA level (HEK293T cells [1]; replicate 2): 1.145
SNX27 relative mRNA level (HEK293T cells [1]; replicate 2): 1.0167
SYNJ2BP relative mRNA level (HEK293T cells [1]; replicate 2): 1.042
TAX1BP3 relative mRNA level (HEK293T cells [1]; replicate 2): 1.009
p53 relative mRNA level (HEK293T cells [1]; replicate 2): 1.147
DLG1 relative mRNA level (HEK293T cells [1]; replicate 3): 0.8765
GFP relative mRNA level (HEK293T cells [1]; replicate 3): 0.3884
MAGI1 relative mRNA level (HEK293T cells [1]; replicate 3): 0.864
RPLP0 relative mRNA level (HEK293T cells [1]; replicate 3): 1.0145
SCRIB relative mRNA level (HEK293T cells [1]; replicate 3): 0.879
SNTB2 relative mRNA level (HEK293T cells [1]; replicate 3): 0.9516
SNX27 relative mRNA level (HEK293T cells [1]; replicate 3): 0.8492
SYNJ2BP relative mRNA level (HEK293T cells [1]; replicate 3): 0.8794
TAX1BP3 relative mRNA level (HEK293T cells [1]; replicate 3): 0.9092
p53 relative mRNA level (HEK293T cells [1]; replicate 3): 0.9937
HPV16 E6 relative mRNA level (HEK293T cells [1]; replicate 1): 0.5053
HPV16 E6 relative mRNA level (HEK293T cells [1]; replicate 2): 0.4889
HPV16 E6 relative mRNA level (HEK293T cells [1]; replicate 3): 0.4569
p53 relative protein level (HEK293T cells [2]; replicate 1): 0.1537
p53 relative protein level (HEK293T cells [2]; replicate 2): 0.2546
p53 relative protein level (HEK293T cells [2]; replicate 3): 0.1997
AHNAK relative protein level (HEK293T cells [2]; replicate 1): 0.9544
LIN7C relative protein level (HEK293T cells [2]; replicate 1): 0.7333
MPP6 relative protein level (HEK293T cells [2]; replicate 1): 0.8283
SNX27 relative protein level (HEK293T cells [2]; replicate 1): 0.8078
AHNAK relative protein level (HEK293T cells [2]; replicate 2): 0.9923
LIN7C relative protein level (HEK293T cells [2]; replicate 2): 0.764
MPP6 relative protein level (HEK293T cells [2]; replicate 2): 0.8646
SNX27 relative protein level (HEK293T cells [2]; replicate 2): 1.3738
AHNAK relative protein level (HEK293T cells [2]; replicate 3): 1.222
LIN7C relative protein level (HEK293T cells [2]; replicate 3): 1.025
MPP6 relative protein level (HEK293T cells [2]; replicate 3): 0.4141
SNX27 relative protein level (HEK293T cells [2]; replicate 3): 1.15
